Values of other authors in US20060198900A1, “Bioactive Agent Compositions for Repair of Cell Injuries” (Nutritional Bioscience Limited, priority 2004, published 2006).

System: gastric damage
Settings: Playford et al. 1995

B1: hSP: recombinant human spasmolytic polyptide (hSP) (protein, UniProt Q03403 24-129, looked up)
Trefoil factor 2: EKPSPCQCSRLSPHNRTNCGFPGITSDQCFDNGCCFDSSVTGVPWCFHPLPKQESDQCVMEVSDRRNCGYPGISPEECASRKCCFSNFIFEVPWCFFPKSVEDCHY
reduction of gastric damage: 50%
